According to patent US20140255383A1 (SYNAGEVA BIOPHARMA, published 2014):

Biological target: Mannose 6-phosphate receptor (M6P receptor) on human MPS IIIB fibroblasts (human)
Assay: cell-based or functional assay

B1: recombinant human N-acetyl-alpha-D-glucosaminidase (rhNaGlu) produced from a transgenic avian (Gallus) (enzyme)
chain: DEAREAAAVRALVARLLGPGPAADFSVSVERALAAKPGLDTYSLGGGGAARVRVRGSTGVAAAAGLHRYLRDFCGCHVAWSGSQLRLPRPLPAVPGELTEATPNRYRYYQNVCTQSYSFVWWDWARWEREIDWMALNGINLALAWSGQEAIWQRVYLALGLTQAEINEFFTGPAFLAWGRMGNLHTWDGPLPPSWHIKQLYLQHRVLDQMRSFGMTPVLPAFAGHVPEAVTRVFPQVNVTKMGSWGHFNCSYSCSFLLAPEDPIFPIIGSLFLRELIKEFGTDHIYGADTFNEMQPPSSEPSYLAAATTAVYEAMTAVDTEAVWLLQGWLFQHQPQFWGPAQIRAVLGAVPRGRLLVLDLFAESQPVYTRTASFQGQPFIWCMLHNFGGNHGLFGALEAVNGGPEAARLFPNSTMVGTGMAPEGISQNEVVYSLMAELGWRKDPVPDLAAWVTSFAARRYGVSHPDAGAAWRLLLRSVYNCSGEACRGHNRSPLVRRPSLQMNTSIWYNRSDVFEAWRLLLTSAPSLATSPAFRYDLLDLTRQAVQELVSLYYEEARSAYLSKELASLLRAGGVLAYELLPALDEVLASDSRFLLGSWLEQARAAAVSEAEADFYEQNSRYQLTLWGPEGNILDYANKQLAGLVANYYTPRWRLFLEALVDSVAQGIPFQQHQFDKNVFQLEQAFVLSKQRYPSQPRGDTVDLAKKIFLKYYPRWVAGSW
modifications: glycosylated; glycans carry mannose-6-phosphate (3.2 moles of M6P per mole of protein), sites not stated
cellular uptake: NaGlu activity in MPS IIIB fibroblasts treated with 0.3 µg/mL rhNaGlu for 24 hours, against wild-type fibroblasts: ~50 % of wild-type activity | cellular uptake: NaGlu activity in MPS IIIB fibroblasts treated with 1 µg/mL rhNaGlu for 24 hours, against wild-type fibroblasts: ~4 fold of wild-type activity | cellular uptake: NaGlu activity in MPS IIIB fibroblasts treated with 30 µg/mL rhNaGlu for 24 hours, against wild-type fibroblasts: ≥ 40 fold of wild-type activity
